# Variants at the floor of the assay were thinned out.
# B1: TPR 5TU (parent)
# chain: GGAUCUUCUCGAUCUAACAAAAAAGACAAAUCUGCCACAAAGCUUGAGAGCAUCUUCGGAUGCAGAGGCGGCAGCCUUCGGUGGCGCGAUAGCGCCAACGUUCUCAACUAUGACACGCAAAACGCGUGCUCCGUUGAAUGGAGUUUAUCAUG
# Variants of: B1
# Test: polymerase ribozyme fitness, log enrichment relative to wild type (log ratio); higher = more active; in vitro selection for triplet polymerase activity
# In short: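 Genotype fitness is the logarithm of its enrichment divided by wild-type enrichment, using inverse-variance-weighted averages of replicates. That logarithm is base 2. Enrichment was measured by Illumina sequencing of input and output libraries from one triplicate in vitro selection round, with frozen incubation at −7 °C, on PCR-built, transcribed mutant libraries of each subunit of a heterodimeric triplet polymerase ribozyme, retaining genotypes with ≥10 input reads and ≥1 read per output.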
row,Variant,polymerase ribozyme fitness (log ratio)
1,GGAUCUUCUCGAUCUAACAAAAAAGACAAAUCUGCCACAAAGCUUGAGAGCAUCUUCGGAUGCAGAGGCGGCAGCCUUCGGUGGCGCGAUAGCGCCAACGUACUCAACUAUGACACGCAAAACGCGUGCUCCGUUGAAUGGAGUUUAUCAUG [U102A],-0.854
2,GGAUCUUCUCGAUCUAACAAAAAAGACAAAUCUGCCACAAAGCUUGAGAGCAUCUUCGGAUGCAGAGGCGGCAGCCUUCGGUGGCGCGAUAGCGCCAACGUGCUCAACUAUGACAGGCAAAACGCGUGCUCCGUUGAAUGGAGUUUAUCAUG [U102G C116G],-1.67
3,GGAUCUUCUCGAUCUAACAAAAAAGACAAAUCUGCCACAAAGCUUGAGAGCAUCUUCGGAUGCAGAGGCGGCAGCCUUCGGUGGCGCGAUAGCGCCAACUUUCUCAACUAUGACACGCAAAACGCGUGCUCCGUUGAAUGGCGUUUAUCAUG [G100U A142C],-4.17
4,GGAUCUUCUCGAUCUAACAAAAAAGACAAAUCUGCCACAAAGCUUGAGAGCAUCUUCGGAUGCAGAGGCGGCAGCCUUCGGUGGCGCGAUAGCGCCAACGGUCUCAACUAUGACGCGCAAAACGCGUGCUCCGUUGAAUGGAGUUUAUCAUG [U101G A115G],-0.695
5,GGAUCUUCUCGAUCUAACAAAAAAGACAAAUCUGCCACAAAGCUUGAGAGCAUCUUCGGAUGCAGAGGCGGCAGCCUUCGGUGGCGCGAUAGCGCCAACGUGCUCAACUAUGACACGCAAAACGCGUGCUCCGUUGAAUGCAGUUUAUCAUG [U102G G141C],-3.94
6,GGAUCUUCUCGAUCUAACAAAAAAGACAAAUCUGCCACAAAGCUUGAGAGCAUCUUCGGAUGCAGAGGCGGCAGCCUUCGGUGGCGCGAUAGCGCCAACGUUAUCACCUAUGACACGCAAAACGCGUGCUCCGUUGAAUGGCGUUUAUCAUG [C103A A107C A142C],≤ -4.2
7,GGAUCUUCUCGAUCUAACAAAAAAGACAAAUCUGCCACAAAGCUUGAGAGCAUCUUCGGAUGCAGAGGCGGCAGCCUUCGGUGGCGCGAUAGCGCCAACGUCCUCAACUAUGACACGCAAAACGCGUGCUUCGGUGAAUGGAGUUUAUCAUG [U102C C131U U134G],-4.13
8,GGAUCUUCUCGAUCUAACAAAAAAGACAAAUCUGCCACAAAGCUUGAGAGCAUCUUCGGAUGCAGAGGCGGCAGCCUUCGGUGGCGCGAUAGCGCCAACGUGCUCAACUAUGACACGCAAAACGCGCGCUCCGUUGAAUGGAGUUUAUCAUG [U102G U127C],-4.17
9,GGAUCUUCUCGAUCUAACAAAAAAGACAAAUCUGCCACAAAGCUUGAGAGCAUCUUCGGAUGCAGAGGCGGCAGCCUUCGGUGGCGCGAUAGCGCCAACGUUAUCAUCUAUGACACGCAAAACGCGUGCUCCGAUGAAUGGAGUUUAUCAUG [C103A A107U U134A],≤ -4.2
10,GGAUCUUCUCGAUCUAACAAAAAAGACAAAUCUGCCACAAAGCUUGAGAGCAUCUUCGGAUGCAGAGGCGGCAGCCUUCGGUGGCGCGAUAGCGCCAACGUUAUCAACUAUGACACGCAAAACGCGUGCUCCGUUGAAUGGAGUUUAUCAUG [C103A],-1.23
11,GGAUCUUCUCGAUCUAACAAAAAAGACAAAUCUGCCACAAAGCUUGAGAGCAUCUUCGGAUGCAGAGGCGGCAGCCUUCGGUGGCGCGAUAGCGCCAACGUUGUCAACUAUGACACGCAAAACGCGUGCUCCGUUGAAUGGAGUUUAUCAUG [C103G],-1.4
12,GGAUCUUCUCGAUCUAACAAAAAAGACAAAUCUGCCACAAAGCUUGAGAGCAUCUUCGGAUGCAGAGGCGGCAGCCUUCGGUGGCGCGAUAGCGCCAACGUUGUCAACUAUGACACGCAUAACGCGUGCUCCGUUGAAUGGAGUUGAUCAUG [C103G A120U U146G],-1.37
13,GGAUCUUCUCGAUCUAACAAAAAAGACAAAUCUGCCACAAAGCUUGAGAGCAUCUUCGGAUGCAGAGGCGGCAGCCUUCGGUGGCGCGAUAGCGCCAACGUGCUCAACUAUGACACGCAAAACGCGUGCUCCGUUGAAUGGUGUUUAUCAUG [U102G A142U],-3.35
14,GGAUCUUCUCGAUCUAACAAAAAAGACAAAUCUGCCACAAAGCUUGAGAGCAUCUUCGGAUGCAGAGGCGGCAGCCUUCGGUGGCGCGAUAGCGCCAACGUUAUCAACUAUGACACGCAAAACGCGUGCUCCGUUGAAUGGAGUUUAUCGUG [C103A A150G],-4.09
15,GGAUCUUCUCGAUCUAACAAAAAAGACAAAUCUGCCACAAAGCUUGAGAGCAUCUUCGGAUGCAGAGGCGGCAGCCUUCGGUGGCGCGAUAGCGCCAACGGUCUCAACUAUGACACGCAAAACGCGUUCUCCGUUGAAUGGAGGUUAUCAUG [U101G G128U U144G],-4
16,GGAUCUUCUCGAUCUAACAAAAAAGACAAAUCUGCCACAAAGCUUGAGAGCAUCUUCGGAUGCAGAGGCGGCAGCCUUCGGUGGCGCGAUAGCGCCAACGUUGUCAACUAUGACCCGCAAAACGCGUGCUCCGUUGGAUGGAGUUUAUGAUG [C103G A115C A137G C149G],≤ -4.2
17,GGAUCUUCUCGAUCUAACAAAAAAGACAAAUCUGCCACAAAGCUUGAGAGCAUCUUCGGAUGCAGAGGCGGCAGCCUUCGGUGGCGCGAUAGCGCCAACGUUAUCAACUAUGACACGCAAAACGCGUGCUCCGUUGAAUGGAGUUCAUCAUG [C103A U146C],-1.49
18,GGAUCUUCUCGAUCUAACAAAAAAGACAAAUCUGCCACAAAGCUUGAGAGCAUCUUCGGAUGCAGAGGCGGCAGCCUUCGGUGGCGCGAUAGCGCCAACGUCCUCAACUAUGAGACGCAAAACGCGUGCUCCGUUGAAUGGAGUUUAUCAUG [U102C C114G],-4.11
19,GGAUCUUCUCGAUCUAACAAAAAAGACAAAUCUGCCACAAAGCUUGAGAGCAUCUUCGGAUGCAGAGGCGGCAGCCUUCGGUGGCGCGAUAGCGCCAACGGUCUCAACUAUGACACGCAAAACGCGUGCUCCGUUGAUUGGAGUUUAUCAUG [U101G A138U],-3.25

# Reference: the RNAGym collection of RNA variant scans (doi:10.1073/pnas.2313332121)
